# Data published in patent US8143228B2, “Agents capable of downregulating an MSF-A dependent HIF-1α and use thereof in cancer treatment” (Medical Research Fund of Tel Aviv Sourasky Medical Center, priority 2004, dated 2012).
# Key:
# Format in all cases: cell-based
# [1] = tested on: HIF-1 transcriptional activity; experiment: HRE-dependent luciferase reporter gene assay in PC-3 cells; details: pooled PC-3-MSF-A vs PC-3-Neo cells
# Description: Reporter gene assay and luminescence measurements—HRE-dependent luciferase activity was performed using the pBI-GL construct (pBI-GL V6L) containing six tandem copies of the VEGF hypoxia response element as previously described (Mabjeesh et al., 2002; Post and Van Meir, 2001). Cells were grown in 6-well plates and then transiently transfected in triplicate with a total of 1 μg DNA including 0.1 μg of the reporter plasmid, pBI-GL V6L. Duplicate sets of transfected cell-culture plates were then separated and incubated for 16 hours under either normoxic or hypoxic conditions. Luciferase enzymatic activity was measured using the commercial kit TROPIX (Bedford, Mass.) in the Galaxy luminometer (BMG Labtechnologies LUMIstar) following the manufacturer's instructions. Arbitrary Luciferase activity units were normalized to the amount of protein in each assay point.
# To investigate the effect of MSF-A binding on HIF-1α function, the transcriptional activity of the HIF-1 complex was determined using a reporter gene assay as previously described (Mabjeesh N J et al. 2ME2 inhibits tumor growth and angiogenesis by disrupting microtubules and dysregulating HIF. Cancer Cell 2003; 3: 363-375). […]
# [2] = tested on: HIF-1α transcriptional activity; experiment: HRE-dependent luciferase reporter gene assay in HEK 293 cells; details: transient transfection, hypoxia, compared with empty vector
# Description: FIG. 7 is a graph depicting luciferase activity (a reporter of HIF-1α transcriptional activation) as a function of the presence or absence of the N-terminus of the MSF-A protein. HEK 293 cells were co-transfected with 0.1 μg HRE-dependent luciferase reporter [pBI-GL V6L (Post, D. E., and Van Meir, E. G. 2001. Generation of bidirectional hypoxia/HIF-responsive expression vectors to target gene expression to hypoxic cells. Gene Ther 8, 1801-1807. Mabjeesh, N. J., et al., 2002, Geldanamycin induces degradation of hypoxia-inducible factor 1 alpha protein via the proteasome pathway in prostate cancer cells. Cancer Res 62, 2478-2482) and the wild type (WT) MSF-A (p3xFlag-MSF-A), ΔN-MSF-A (ΔN) (p3xFlag-ΔN-MSF-A) or empty vector (EV) (p3xFlag-cmv-25) constructs as follows: Experiment (Exp.) No. 1=1 μg EV; Exp. No. 2=0.5 μg EV and 0.5 μg WT; Exp. No. 3-1 μg WT; Exp. No. 4=0.5 μg EV and 0.5 μg ΔN; Exp. No. 5=1 μg ΔN. After 24 hours of transfection, cells were subjected to normoxia or hypoxia for overnight and then analyzed for luciferase luminescence assay. Luciferase activity is presented as relative units per μg protein in each experiment. Columns represent means; bars represent SD; n=3; *, p<0.05 compared to hypoxia of EV. Note the significant decrease of luciferase activity in cells grown under hypoxia and transfected with the N-terminus truncated form (ΔN) of MSF-A as compared with cells transfected with the wild-type form of MSF-A. Also note that under normoxia, when the luciferase activity is hardly detected, no significant difference is obtained.
# FIG. 8 is a graph depicting luciferase activity (a reporter of HIF-1α transcriptional activation) as a function of the presence or absence of the GTP binding site of MSF-A (ΔG). HEK 293 cells were cotransfected with HRE-dependent luciferase reporter and the expression vector encoding wild-type MSF-A (WT) (p3xFlag-MSF-A), the deleted GTP binding site form of MSF-A (ΔG) (p3xFlag-ΔG-MSF-A) or empty vector (EV) (p3xFlag-cmv-25) and then were exposed to hypoxia conditions as described in the description of FIG. 4, hereinabove. Luciferase activity is presented as relative units per μg protein in each experiment. Columns represent means; bars represent SD; n=3. Note the non-significant effect of the ΔG-MSF-A on HIF-1α activity.
# Reporter gene assay and luminescence measurements—HRE-dependent luciferase activity was performed using the pBI-GL construct (pBI-GL V6L) containing six tandem copies of the VEGF hypoxia response element as previously described (Mabjeesh et al., 2002; Post and Van Meir, 2001). […] Luciferase enzymatic activity was measured using the commercial kit TROPIX (Bedford, Mass.) in the Galaxy luminometer (BMG Labtechnologies LUMIstar) following the manufacturer's instructions. […]
# HIF-1 target genes = experiment: Semi-quantitative RT-PCR of HIF-1 target genes
# Description: FIGS. 12a-f are RT-PCR analyses depicting HIF-1α mediated activation of various genes in cells transfected with the expression vector alone (Neo) or the MSF-A expression vector (MSF-A). Total RNA was isolated from PC-3-Neo and PC-3-MSF-A cells grown under normoxic (lanes 1 and 2) and hypoxic (lanes 3 and 4) conditions. Semi-quantitative RT-PCR analysis was performed using VEGF, Glut-1, ET-1, CA-IX, HIF-1α and β-actin primers (SEQ ID NOs:4200-4211 as described under General Materials and Experimental Methods). Lane 1—Neo, lane 2—MSF-A, lane 3—Neo, lane 4—MSF-A, lane 5—water (negative control).
# Isolation and analysis of RNA—Total RNA was extracted from cells by using RNeasy Mini Kit (Qiagen Inc., Valencia, Calif.) according to the manufacturer's protocol. Total RNA from xenograft-derived tumors, which were frozen in liquid N2 immediately after dissection, was prepared using TRI REAGENT (Sigma-Aldrich Co., Saint Louis, Mo.) following the manufacturer's instructions. One μg total RNA was reverse transcribed into cDNA using Reverse-iT 1st Strand Synthesis Kit (ABgene, Epsom, United Kingdom) using anchored oligo dT as first strand primer. […] Semi-quantitative RT-PCR was performed using […] as an internal control to normalize gene expression for the PCR templates. […]
molecule,measurement,setting,value
"MSF-A: myeloid/lymphoid leukemia septin-like fusion protein A (SEQ ID NO:3), over-expressed from the p3xFlag-MSF-A vector (protein, listed as Homo sapiens, 3xFlag tag) MKKSYSGGTRTSSGRLRRLGDSSGPALKRSFEVEEVETPNSTPPRRVQTPLLRATVASSTQKFQDLGVKNSEPSARHVDSLSQRSPKASLRRVELSGPKAAEPVSRRTELSIDISSKQVENAGAIGPSRFGLKRAEVLGHKTPEPAPRRTEITIVKPQESAHRRMEPPASKVPEVPTAPATDAAPKRVEIQMPKPAEAPTAPSPAQTLENSEPAPVSQLQSRLEPKPQPPVAEATPRSQEATEAAPSCVGDMADTPRDAGLKQAPASRNEKAPVDFGYVGIDSILEQMRRKAMKQGFEFNIMVVGQSGLGKSTLINTLFKSKISRKSVQPTSEERIPKTIEIKSITHDIEEKGVRMKLTVIDTPGFGDHINNENCWQPIMKFINDQYEKYLQEEVNINRKKRIPDTRVHCCLYFIPATGHSLRPLDIEFMKRLSKVVNIVPVIAKADTLTLEERVHFKQRITADLLSNGIDVYPQKEFDEDSEDRLVNEKFREMIPFAVVGSDHEYQVNGKRILGRKTKWGTIEVENTTHCEFAYLRDLLIRTHMQNIKDITSSIHFEAYRVKRLNEGSSAMANGVEEKEPEAPEM","HIF-1 transcriptional activity (luciferase assay), stable transfectants",[1],significant increase
same,HIF-1α transcriptional activity (luciferase reporter),[2],induced HIF-1α activity
same,HIF-1α mRNA level,HIF-1 target genes; PC-3-MSF-A and PC-3-Neo cells,unchanged
same,VEGF mRNA levels,HIF-1 target genes; PC-3-MSF-A vs PC-3-Neo cells,significantly higher
